Consider 4 molecules from patent US20210214430A1 (Regeneron, published 2021).

First the molecules themselves.
B1: recombinant VEGF MiniTrap (dimer) MT5 (receptor)
chain: SDTGRPFVEMYSEIPEIIHMTEGRELVIPCRVTSPNITVTLKKFPLDTLIPDGKRIIWDSRKGFIISNATYKEIGLLTCEATVNGHLYKTNYLTHRQTNTIIDVVLSPSHGIELSVGEKLVLNCTARTELNVGIDFNWEYPSSKHQHKKLVNRDLKTQSGSEMKKFLSTLTIDGVTRSDQGLYTCAASSGLMTKKNSTFVRVHEKDKTHTCPPCPAPELLG
notes: also called VEGF MiniTrap 5
B2: mAb1 (a mouse anti-VEGFR1 mAb human IgG1) (antibody)
heavy: not shown
light: DIQMTQSPSSLSASLGGKVTITCTTSQDSNNYIAWYQHKPGKGPRLLIHYASTLQPGIPSRFSGSGSGRDYSFSISNLEPEDIATYFCLQYDYLWTFGGGTKLELKRTVAAPSVFIFPPSDEQLKSGTASVVCLLNNFYPREAKVQWKVDNALQSGNSQESVTEQDSKDSTYSLSSTLTLSKADYEKHKVYACEVTHQGLSSPVTKSFNRGEC
notes: Also amine-coupled to the Biacore chip to capture MT5
B3: mAb2 (a mouse anti-VEGFR1 mAb human IgG1) (antibody, V domains shown)
VH: EVQLVESGGDLVKPGGSLKLSCAASGFTFSDSGMSWVRQTPDKRLEWVATISSGGGYTYYSDSVEGRFTISRDNANNTLFLQMSSLKSEDTAMFYCARLGNYGGYYGMDYWGQGTSVTVSS
VL: DIQMTQSPSSLSASLGGKVTITCKTSQDSNKYIAWYQHKPGKGPRLLIHYTSTLQPGIPSRFSGSGSGRDYSFSISNLEPEDIATYYCLQYDNLWTFGGGTKLEIKR
notes: also called column 3
B4: mAb3 (a mouse anti-VEGFR1 mAb mouse IgG1) (antibody)
heavy: EVQLVESGGDLVKPGGSLKLSCAASGFTFSSSGMSWVRQTPDKRLEWVATITSGGSYTYYPDSVKGRFTISRDNAKNTLYLQMSSLKSEDTAMFYCARLGNYGGYYAMDYWGQGTSVTVSSAKTTPPSVYPLAPGSAAQTNSMVTLGCLVKGYFPEPVTVTWNSGSLSSGVHTFPAVLQSDLYTLSSSVTVPSSTWPSETVTCNVAHPASSTKVDKKIVPRDCGCKPCICTVPEVSSVFIFPPKPKDVLTITLTPKVTCVVVDISKDDPEVQFSWFVDDVEVHTAQTQPREEQFNSTFRSVSELPIMHQDWLNGKEFKCRVNSAAFPAPIEKTISKTKGRPKAPQVYTIPPPKEQMAKDKVSLTCMITDFFPEDITVEWQWNGQPAENYKNTQPIMDTDGSYFVYSKLNVQKSNWEAGNTFTCSVLHEGLHNHHTEKSLSHSPGK
light: DIQMTQSPSSLSASLGGKVTITCTTSQDSNNYIAWYQHKPGKGPRLLIHYASTLQPGIPSRFSGSGSGRDYSFSISNLEPEDIATYFCLQYDYLWTFGGGTKLELKRADAAPTVSIFPPSSEQLTSGGASVVCFLNNFYPKDINVKWKIDGSERQNGVLNSWTDQDSKDSTYSMSSTLTLTKDEYERHNSYTCEATHKTSTSPIVKSFNRGEC
notes: also called column 4

The target in one experiment is T1, VEGF165 (human, UniProt P15692 207-395).
T1 construct: also called hVEGF165
T1 sequence (P15692 other isoform, or with tags, fused parts or gaps limits assumed): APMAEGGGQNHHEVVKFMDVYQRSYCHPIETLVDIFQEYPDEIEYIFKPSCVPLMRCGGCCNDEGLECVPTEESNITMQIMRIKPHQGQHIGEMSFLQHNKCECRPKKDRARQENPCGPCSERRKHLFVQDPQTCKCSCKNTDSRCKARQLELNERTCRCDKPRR
The experiment is described as follows: SPR, Biacore T200, 25 C; MT5 captured on amine-coupled mAb1, VEGF165 injected at 0.03-2 nM; 1:1 Langmuir fit. Conditions: loading solution before affinity chromatography. The procedure:
All binding studies were performed in 10 mM HEPES, 150 mM NaCl, 3 mM EDTA, and 0.05% v/v Surfactant Tween-20, pH 7.4 (HBS-ET) running buffer at 25° C. The Biacore sensor surface was first derivitized by amine coupling with a mAb 1 to capture MT5.
Briefly, the eluates from the columns and loading solution were diluted into an HBS-EP (Biacore) buffer and injected across the immobilized protein matrices at a capture level of ˜70 RUs. The VEGF₁₆₅ was then injected at a flow rate of 50 μL/min. Equivalent concentration of analyte was simultaneously injected over an untreated reference surface to serve as blank sensorgrams for subtraction of bulk refractive index background. The sensor chip surface was regenerated between cycles with two 5-min injections of 10 mM Glycine, at 25 μL/min. The resultant experimental binding sensorgrams were then evaluated using the BIA evaluation 4.0.1 software to determine kinetic rate parameters. Datasets for each sample were fit to the 1:1 Langmuir model. For these studies, binding and dissociation data were analyzed under the Global Fit Analysis protocol while selecting fit locally for maximum analyte binding capacity (RU) or Rmax attribute. In this case, the software calculated a single dissociation constant (kd), association constant (ka), and affinity constant (Kd). The equilibrium dissociation constant is KD=kd/ka. […] The dissociative half-lives (t½) were calculated from the kinetic rate constants as: t_{1/2}=ln(2)/60*[…]. Binding kinetic parameters for MT5 to VEGF₁₆₅ obtained from before and after the affinity chromatography production at 25° C. are shown in Table 7-6.

For experiment [1], the target named is B1. The experiment is described as follows: affinity chromatography on immobilized mAb1, low-pH eluate on non-reducing SDS-PAGE. Here is the method: (§1) The column was activated by washing the columns with 6 column volumes (CV) of 1 mM ice-cold hydrochloric acid at a flow rate not exceeding 1 mL/min. […] The columns were washed with 18 column volumes of 0.5 M sodium acetate, 0.5 M NaCl, pH 4.0 and the open sites were blocked with 18 column volumes of 0.5 M Tris-HCl, 0.5 M NaCl pH 8.3 (the wash was carried out in the following order: 6 column volumes of 0.5 M Tris-HCl, 0.5 M NaCl, pH 8.3; 6 column volumes of 0.5 M sodium acetate (sodium acetate: JT Baker, Cat #3470-01), 0.5 M NaCl, pH 4.0; 6 column volumes of 0.5 M Tris, pH 8.3; incubate the column for 30 minutes at room temperature; 6 column volumes of 0.5 M sodium acetate buffer, 0.5 M NaCl pH 4.0; 6 column volumes of 0.5 M Tris-HCl, 0.5 NaCl, pH 8.3 and 6 column volumes of 0.5 M sodium acetate buffer, 0.5 M NaCl pH 4.0). The columns were stored in DPBS, pH 7.5. The five columns evaluated are designated as column 1 (comprising VEGF₁₆₅), column 2 (comprising mAb1), column 3 (comprising mAb2), column 4 (comprising mAb3) and column 5 (comprising mAb4).
(§2) SDS-PAGE analysis of the eluted fractions from the three columns (column 1, column 2, and column 3) was performed. […]

Experiment [2] deals with B1. The experiment is described as follows: affinity chromatography on immobilized mAb2, low-pH eluate on non-reducing SDS-PAGE. Here is the method: as §1, §2
The target of experiment [3] is B1. The experiment is described as follows: affinity chromatography, antibody coupled to HiTrap NHS-activated column (column 4).

Regarding B1, in the experiment with VEGF165, the Kd – broadly, the constant that tells how readily two partners part at equilibrium – stood at 1.84 pM; the koff (usually the first-order rate constant of dissociation) turned out to be 1.74e-05 s⁻¹; the kon (usually the rate constant with which the complex forms) amounted to 9.44e+06 M⁻¹ s⁻¹; the “t1/2 (dissociative half-life)” value turned out to be 11.1 h.
As for B2, in experiment [1], the binding result is given as “binds”.
For the molecule B3, the binding result in experiment [2] is reported as “binds”.
Turning to B4, in experiment [3], the binding result is on record as “binds”.
